Laboratory results: PMC5638086, “Assessment of the protein interaction between coagulation factor XII and corn trypsin inhibitor by molecular docking and biochemical validation” (Journal of Thrombosis and Haemostasis, 2017)
Substitutions are numbered along the chain they refer to. Numbers in names are those of the source. Where a SMILES comes first, the peptide text is derived from it. Bridges are numbered along the chain shown (N, C = ends). Where no end group is shown, it is not given here.

T1: α‐FXIIa (Homo sapiens, UniProt P00748)
T1 construct: purchased Enzyme Research Laboratories (Swansea, UK)
T1 sequence (P00748 373-615 limits assumed): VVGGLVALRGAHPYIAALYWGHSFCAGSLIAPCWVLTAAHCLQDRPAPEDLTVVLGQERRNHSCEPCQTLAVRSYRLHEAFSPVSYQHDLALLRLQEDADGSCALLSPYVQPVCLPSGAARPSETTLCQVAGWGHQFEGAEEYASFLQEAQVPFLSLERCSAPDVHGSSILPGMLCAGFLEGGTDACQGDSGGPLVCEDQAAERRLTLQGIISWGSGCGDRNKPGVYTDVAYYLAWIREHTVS
T1 sequence (P00748 20-372 partner limits assumed): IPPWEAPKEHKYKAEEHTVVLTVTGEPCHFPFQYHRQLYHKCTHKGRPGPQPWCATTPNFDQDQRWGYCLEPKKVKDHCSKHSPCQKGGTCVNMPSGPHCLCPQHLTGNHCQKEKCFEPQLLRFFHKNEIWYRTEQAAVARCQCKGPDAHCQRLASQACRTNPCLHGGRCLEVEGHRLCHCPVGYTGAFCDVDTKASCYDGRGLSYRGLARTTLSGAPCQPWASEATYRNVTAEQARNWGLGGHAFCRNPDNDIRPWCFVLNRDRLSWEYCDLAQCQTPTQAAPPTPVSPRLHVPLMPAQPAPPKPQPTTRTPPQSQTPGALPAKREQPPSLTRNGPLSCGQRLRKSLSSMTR

B1: L35A: rec‐CTI variant, alanine substitution of Leu35 (protein)
chain: SAGTSCVPGWAIPHNPLPSCRWYVTSRTCGIGPRAPWPELKRRCCRELADIPAYCRCTALSILMDGAIPPGPDAQLEGRLEDLPGCPREVQRGFAATLVTEAECNLATISGVAECPWILGGGTMPSK
modifications: assayed as His6-GST fusion (tag omitted); disulfides
B2: G32W: rec‐CTI variant, replacement of Gly32 with tryptophan (protein)
chain: B1 chain with G32W, A35L
modifications: assayed as His6-GST fusion (tag omitted); disulfides
B3: R27A/E39A: rec‐CTI double substitution R27A/E39A (protein)
chain: B1 chain with R27A, A35L, E39A
modifications: assayed as His6-GST fusion (tag omitted); disulfides
B4: R42A: rec‐CTI variant, alanine substitution of Arg42 (protein)
chain: B1 chain with A35L, R42A
modifications: assayed as His6-GST fusion (tag omitted); disulfides
B5: W22A: rec‐CTI variant, alanine substitution of Trp22 (protein)
chain: B1 chain with W22A, A35L
modifications: assayed as His6-GST fusion (tag omitted); disulfides
B6: W37A: rec‐CTI variant, alanine substitution of Trp37 (protein)
chain: B1 chain with A35L, W37A
modifications: assayed as His6-GST fusion (tag omitted); disulfides
B7: R42A/R43A: rec‐CTI R42A/R43A double mutant (protein)
chain: B1 chain with A35L, R42A, R43A
modifications: assayed as His6-GST fusion (tag omitted); disulfides
B8: R27A/R42A: rec‐CTI double substitution R27A/R42A (protein)
chain: B1 chain with R27A, A35L, R42A
modifications: assayed as His6-GST fusion (tag omitted); disulfides
B9: G30W: rec‐CTI variant, replacement of Gly30 with a tryptophan (protein)
chain: B1 chain with G30W, A35L
modifications: assayed as His6-GST fusion (tag omitted); disulfides
B10: E39A: rec‐CTI variant, alanine substitution of Glu39 (protein)
chain: B1 chain with A35L, E39A
modifications: assayed as His6-GST fusion (tag omitted); disulfides
B11: R27A: rec‐CTI variant, alanine substitution of Arg27 (protein)
chain: B1 chain with R27A, A35L
modifications: assayed as His6-GST fusion (tag omitted); disulfides

Experiments:
[1] = biological target: Full length activated FXIIa (α‐FXIIa) (UniProt P00748)
[2] = biological target: T1, α‐FXIIa; assay: α‐FXIIa enzymatic assay (S‐2302 chromogenic substrate cleavage, pNA release); assay type: biochemical; details: for IC50 / pIC50 ± SE: 33 °C, SE of the fit, n = 3–5 independent experiments; for IC50 (M): IC50 corresponding to the pIC50
Method: The enzymatic activity of α‐FXIIa was measured by monitoring the amount of pNA chromophore released from substrate H‐D‐Pro‐Phe‐Arg‐pNA (S‐2302). Assays were performed in a 100‐μL volume at 33 °C in 96‐well plates in a Perkin Elmer (Seer Green, UK) Envision plate reader, and pNA release was followed over a period of 6 h by reading the absorbance at 405 nm. Absorbance values were converted to pNA concentrations by comparison with a standard curve obtained under exactly the same instrument conditions. All absorbance values were within the linear measurement range of the instrument. Initial rates were calculated on the basis of the first 30 min of incubation. To assess the K M, concentrations of substrate peptide between 0.1 mM and 0.6 mM were incubated with 10 nM α‐FXIIa, enzymatic activity was measured as described above, and data were analyzed by non‐linear regression with the Michaelis–Menten algorithm (GRAPHPAD PRISM, version 6.04). To assess the inhibitory mechanism of CTI, 30 nM CTI was incubated with these same concentrations of substrate peptide, the reaction was initiated by the addition of 10 nM α‐FXIIa, enzymatic activity was measured as described above, and data were analyzed by non‐linear regression with the Michaelis–Menten algorithm (GRAPHPAD PRISM, version 6.04) and by linear regression after Lineweaver–Burk transformation. To assay inhibitors, concentrations of CTI variant proteins between 10^−8 M and 10^−5 M or concentrations of peptides between 10^−6 M and 10^−3 M were incubated with 200 μM substrate peptide, the reaction was initiated by addition of 10 nM α‐FXIIa, enzymatic activity was measured as described above, and IC50 values were determined by non‐linear regression analysis (GRAPHPAD PRISM, version 6.04) using the log[inhibitor] versus response – variable slope algorithm with a bottom constraint.

[3] = synthetic peptides 10^−6 M to 10^−3 M, 200 μM S‐2302, 10 nM α‐FXIIa, initial rate, SEM
[4] = synthetic peptides 10^−6 M to 10^−3 M
[5] = synthetic peptides 10^−6 M to 10^−3 M, 200 μM S‐2302, 10 nM α‐FXIIa, initial rate
[6] = CTI variant proteins 10^−8 M to 10^−5 M, 200 μM S‐2302, 10 nM α‐FXIIa, initial rate of first 30 min, A405, SEM

Molecule | IC50 of inhibition of α‐FXIIa enzymatic activity (S‐2302 cleavage) [1] [µM] | pIC50 of inhibition of α‐FXIIa enzymatic activity (S‐2302 cleavage) [1] | pIC50 ± SE [2, 6] | other results
rec‐CTI R27A/R42A (natural protein) | 0.16 | 6.8 |  | 
rec‐CTI L35A (natural protein) | 4.9 | 5.31 |  | 
rec‐CTI G30W (natural protein) | 0.48 | 6.32 |  | 
YVTSRTAGIGPRLPWPELKRR [CTI(23–43)] |  |  |  | IC50 [2, 3]: 1150 µM
RWYVTSRTAGIGPRLPWPELKRR [CTI(21–43)] |  |  |  | IC50 [2, 3]: 457 µM
rec‐CTI W22A (natural protein) | 19 | 4.72 |  | 
rec‐CTI E39A (natural protein) | 0.14 | 6.85 |  | 
recombinant CTI (rec‐CTI) (natural protein) | 0.12 | 6.94 |  | 
rec‐CTI R42A/R43A (natural protein) | 11 | 4.98 |  | 
rec‐CTI R27A/E39A (natural protein) | 0.26 | 6.58 |  | 
GISTAGPWRRRPPELLKVTY [Scrambled, scrambled control peptide] |  |  |  | IC50 (M) [2, 4]: NIA; pIC50 ± SE [2, 5]: NIA
glutathione‐S‐transferase [GST, reference compound] |  |  |  | Inhibition of α‐FXIIa, result in words ([2]; 200 μM substrate peptide, 10 nM α‐FXIIa): did not inhibit; pIC50 ± SE ([2]; CTI variant proteins 10^−8 M to 10^−5 M, 200 μM S‐2302, 10 nM α‐FXIIa, initial rate of first 30 min, A405): NIA; IC50 (M) ([2]; CTI variant proteins 10^−8 M to 10^−5 M, 200 μM S‐2302, 10 nM α‐FXIIa): NIA
RWYVTSRTAGIGPRLPWPELKR [CTI(21–42)] |  |  |  | IC50 [2, 3]: 200 µM
rec‐CTI W37A (natural protein) | 0.11 | 6.97 |  | 
CC[C@H](C)[C@@H]1NC(=O)CNC(=O)[C@H](C)NC(=O)[C@H]([C@@H](C)O)NC(=O)[C@H](CCCNC(=N)N)NC(=O)[C@H](CO)NC(=O)[C@H]([C@@H](C)O)NC(=O)[C@H](C(C)C)NC(=O)[C@H](Cc2ccc(O)cc2)NC(=O)[C@H](Cc2c[nH]c3ccccc23)NC(=O)[C@H](CCCNC(=N)N)NC(=O)[C@@H](N)CSSC[C@@H](C(=O)O)NC(=O)[C@H](CCCNC(=N)N)NC(=O)[C@H](CCCNC(=N)N)NC(=O)[C@H](CCCCN)NC(=O)[C@H](CC(C)C)NC(=O)[C@H](CCC(=O)O)NC(=O)[C@@H]2CCCN2C(=O)[C@H](Cc2c[nH]c3ccccc23)NC(=O)[C@@H]2CCCN2C(=O)[C@H](CC(C)C)NC(=O)[C@H](CCCNC(=N)N)NC(=O)[C@@H]2CCCN2C(=O)CNC1=O [CTI(20–44)] (H-CRWYVTSRTAGIGPRLPWPELKRRC-OH; disulfide 1-25; N-terminus and C-terminus assumed) |  |  |  | Fold reduction in inhibitory activity as compared with rec‐CTI ([2]; synthetic peptides, relative to recombinant CTI): 2416 fold
rec‐CTI R27A (natural protein) | 0.17 | 6.78 |  | 
IGPRLPWP [CTI(31–38), eight‐mer peptide spanning the loop between helices α1 and α2 (CTI residues 31–38)] |  |  |  | IC50 (M) [2, 4]: NIA; pIC50 ± SE [2, 5]: NIA
rec‐CTI G32W (natural protein) | 13 | 4.89 |  | 
rec‐CTI R42A (natural protein) | 0.19 | 6.72 |  | 
B1 |  |  | 5.31 ± 0.05 | 
B2 |  |  | 4.89 ± 0.06 | 
B3 |  |  | 6.58 ± 0.08 | 
B4 |  |  | 6.72 ± 0.15 | 
B5 |  |  | 4.72 ± 0.24 | 
B6 |  |  | 6.97 ± 0.06 | 
B7 |  |  | 4.98 ± 0.02 | 
B8 |  |  | 6.80 ± 0.05 | 
B9 |  |  | 6.32 ± 0.06 | 
B10 |  |  | 6.85 ± 0.06 | 
B11 |  |  | 6.78 ± 0.04 | 
